In patent US20240417475A1 (AFFIMED, published 2024):

Assays:
[1] = molecular target: T1, cynomolgus FOLR1 expressed on CHO cells (cAg_126) (cynomolgus, UniProt A0A2K5U044 25-234); test: flow cytometry on cyFOLR1 CHO cells (cAg_126), one-site fit of MFI, Exp. 1
T1 construct: whole, on cells; also called cyFOLR1
Description: (§1) To analyze binding of different antibody constructs to CHO cells transfected with human FOLR1 (cAg_125) and cynomolgus FOLR1 (cAg_126), 1-5×10⁵ were resuspended in 100 μL FACS buffer (PBS (BioWest, cat.: L0615-500) containing 2% heat-inactivated FCS (Invitrogen, cat.: 10500-064), and 0.1% sodium azide (Sigma, cat.: S8032_100G)) in round-bottom 96-well microtiter plates. After washing in FACS buffer, cells were incubated in 50 μL FACS buffer without antibodies or with titrated antibodies starting at a concentration of 1000 nM followed by eleven 3-fold serial dilutions for 40-50 min on ice in the dark. […] After washing, binding was measured by flow cytometry and mean fluorescence intensities (MFI) of cell samples were calculated and corrected for background staining using control cells stained with secondary antibodies only.
(§2) Binding of antibody constructs to huFOLR1-as well as cyFOLR1-transfected CHO cells was measured by flow cytometry. Equilibrium dissociation constants (KD) of antibody binding were calculated by plotting MFI values and fitting a non-linear regression model for one-site binding to hyperbolic dose-response curves using GraphPad Prism.

[2] = molecular target: T2, human CD16A (158F) expressed on CHO cells (cAg_34) (human, UniProt P08637 17-254); test: flow cytometry on huCD16A (158F) CHO cells (cAg_34), one-site fit of MFI, Exp. 3
T2 construct: also called huCD16A-transfected CHO cells
Description: (§3) After washing in FACS buffer, cells were incubated in 50 μL FACS buffer without antibodies or with titrated antibodies starting at a concentration of 1000 nM followed by elven 3-fold serial dilutions for 40-50 min on ice in the dark. […] After washing, binding was measured by flow cytometry and mean fluorescence intensities (MFI) of cell samples were calculated and corrected for background staining using control cells stained with secondary antibodies only.
(§4) Equilibrium dissociation constants (KD) of antibody binding were calculated by plotting MFI values and fitting a non-linear regression model for one-site binding to hyperbolic dose-response curves using GraphPad Prism.

[3] = molecular target: T2, human CD16A (158F) expressed on CHO …; test: flow cytometry on huCD16A (158F) CHO cells (cAg_34), one-site fit of MFI, Exp. 1
Description: as §3, §4

[4] = molecular target: T1, cynomolgus FOLR1 expressed on CHO cells …; test: flow cytometry on cyFOLR1 CHO cells (cAg_126), one-site fit of MFI, Exp. 2
Description: as §1, §2

[5] = molecular target: T3, human FOLR1 expressed on CHO cells (cAg_125) (human, UniProt P15328 25-234); test: flow cytometry on huFOLR1 CHO cells (cAg_125), one-site fit of MFI, mean
T3 construct: whole, on cells; also called huFOLR1
Description: as §1, §2

[6] = molecular target: T4, cynomolgus CD16 expressed on CHO cells (cAg_36) (cynomolgus, UniProt Q8SPW2 17-254); test: flow cytometry on cyCD16-transfected CHO cells (cAg_36), on ice, FITC goat anti-human IgG detection
T4 construct: whole, on cells; also called cyCD16
Description: as §3

[7] = molecular target: T5, human CD16A (158V) expressed on CHO cells (cAg_35) (human, UniProt P08637 17-254); test: flow cytometry on huCD16A (158V) CHO cells (cAg_35), one-site fit of MFI, Exp. 3
T5 construct: also called huCD16A (158V)
Description: as §3, §4

[8] = molecular target: T3, human FOLR1 expressed on CHO cells …; test: flow cytometry on huFOLR1-transfected CHO cells (cAg_125), on ice, FITC goat anti-human IgG detection
Description: as §1

[9] = molecular target: T2, human CD16A (158F) expressed on CHO …; test: flow cytometry on huCD16A (158F)-transfected CHO cells (cAg_34), on ice, FITC goat anti-human IgG detection
Description: as §3

[10] = molecular target: T5, human CD16A (158V) expressed on CHO …; test: flow cytometry on huCD16A (158V) CHO cells (cAg_35), one-site fit of MFI, mean
Description: as §3, §4

[11] = molecular target: T5, human CD16A (158V) expressed on CHO …; test: flow cytometry on huCD16A (158V) CHO cells (cAg_35), one-site fit of MFI, Exp. 1
Description: as §3, §4

[12] = molecular target: T4, cynomolgus CD16 expressed on CHO cells …; test: flow cytometry on cyCD16 CHO cells (cAg_36), one-site fit of MFI, mean
Description: as §3, §4

[13] = molecular target: T2, human CD16A (158F) expressed on CHO …; test: flow cytometry on huCD16A (158F) CHO cells (cAg_34), one-site fit of MFI, Exp. 2
Description: as §3, §4

[14] = molecular target: T1, cynomolgus FOLR1 expressed on CHO cells …; test: flow cytometry on cyFOLR1 CHO cells (cAg_126), one-site fit of MFI, Exp. 3
Description: as §1, §2

[15] = molecular target: T5, human CD16A (158V) expressed on CHO …; test: flow cytometry on huCD16A (158V)-transfected CHO cells (printed sAg_35), on ice, FITC goat anti-human IgG detection
Description: as §3

[16] = molecular target: T2, human CD16A (158F) expressed on CHO …; test: flow cytometry on huCD16A (158F) CHO cells (cAg_34), one-site fit of MFI, mean
Description: as §3, §4

[17] = molecular target: T4, cynomolgus CD16 expressed on CHO cells …; test: flow cytometry on cyCD16 CHO cells (cAg_36), one-site fit of MFI, Exp. 2
Description: as §3, §4

T2 sequence (P08637 17-254 limits assumed): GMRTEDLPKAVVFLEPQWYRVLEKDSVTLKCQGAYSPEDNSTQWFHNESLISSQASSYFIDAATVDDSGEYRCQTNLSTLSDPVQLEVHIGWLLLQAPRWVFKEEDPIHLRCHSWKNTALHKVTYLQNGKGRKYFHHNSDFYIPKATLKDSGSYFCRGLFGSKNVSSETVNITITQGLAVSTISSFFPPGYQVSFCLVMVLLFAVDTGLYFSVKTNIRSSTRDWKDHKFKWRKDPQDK
T5 sequence (P08637 17-254 F176V limits assumed): as the sequence (P08637 17-254 limits assumed) above, with F160V counted along it
T3 sequence (P15328 25-234): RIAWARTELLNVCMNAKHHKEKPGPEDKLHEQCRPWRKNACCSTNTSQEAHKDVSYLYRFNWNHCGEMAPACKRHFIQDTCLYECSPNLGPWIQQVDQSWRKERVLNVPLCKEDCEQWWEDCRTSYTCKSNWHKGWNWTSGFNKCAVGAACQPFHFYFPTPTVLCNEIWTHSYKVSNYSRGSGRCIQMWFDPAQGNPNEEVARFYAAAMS
T1 sequence (A0A2K5U044 entry or part of it): as the sequence (P15328 25-234) above, with I2T, W4R, R37K, A146P, H171Y counted along it
T4 sequence (Q8SPW2 17-254): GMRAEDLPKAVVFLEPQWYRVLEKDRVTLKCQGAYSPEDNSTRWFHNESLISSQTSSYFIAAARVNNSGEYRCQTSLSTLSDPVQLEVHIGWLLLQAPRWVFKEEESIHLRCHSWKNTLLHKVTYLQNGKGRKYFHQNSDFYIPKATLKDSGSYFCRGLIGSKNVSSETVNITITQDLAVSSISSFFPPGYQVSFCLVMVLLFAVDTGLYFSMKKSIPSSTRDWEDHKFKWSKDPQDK

Kd [1] [nM] | Kd [2] [nM] | Kd [3] [nM] | Kd [4] [nM] | Kd [5] [nM] | EC50 (read off the curve) [6] [nM] | Kd [7] [nM] | EC50 (read off the curve) [8] [nM] | EC50 (read off the curve) [9] [nM] | Kd [10] [nM] | Kd [11] [nM] | Kd [12] [nM] | Kd [13] [nM] | Kd [14] [nM] | EC50 (read off the curve) [15] [nM] | Kd [16] [nM] | Kd [17] [nM] | Binder
14.9 | 19.9 | 16 | 15.3 | 35.8 | ~30 | 47.5 | ~40 | ~20 | 30.8 | 15.8 | 25.2 | 28.5 | 18.8 | ~50 | 21.5 | 26.2 | scFv-IgAb_387 (FOLR1_1×CD16a3) (bispecific antibody, Chemically biotinylated (NHS-PEG4-biotin) in Example 22 only., Tetravalent bispecific scFv-IgAb; also called FOLR1×CD16A scFv-IgAb_387; FOLR1/CD16A scFv-IgAb_387; copies: 2 + 2) heavy: EVQLVESGGGVVQPGRSLRLSCSASGFTFSGYGLSWVRQAPGKGLEWVAMISSGGSYTYYADSVKGRFAISRDNAKNTLFLQMDSLRPEDTGVYFCARHGDDPAWFAYWGQGTPVTVSSASTKGPSVFPLAPSSKSTSGGTAALGCLVKDYFPEPVTVSWNSGALTSGVHTFPAVLQSSGLYSLSSVVTVPSSSLGTQTYICNVNHKPSNTKVDKKVEPKSCDKTHTCPPCPAPEFEGGPSVFLFPPKPKDTLMISRTPEVTCVVVAVSHEDPEVKFNWYVDGVEVHNAKTKPREEQYNSTYRVVSVLTVLHQDWLNGKEYKCKVSNKALPAPIEKTISKAKGQPREPQVYTLPPSREEMTKNQVSLTCLVKGFYPSDIAVEWESNGQPENNYKTTPPVLDSDGSFFLYSKLTVDKSRWQQGNVFSCSVMHEALHNHYTQKSLSLSPGGGGGSGGGGSGGGGSGGGGSGGGGSGGGGSSYELTQPLSVSVALGQTARITCGGNNIGSKSVHWYQQKPGQAPVLVIYQDKKRPSGIPERFSGSNSGNTATLTISRAQAGDEADYYCQVWDDYIVLFGCGTKLTVLGGSGGSGGSGGSGGSGGSGGSQVQLVQSGAEVKKPGASVKVSCKASGYTFTNYYMQWVRQAPGQCLEWMGIINPSGGVTSYAQKFQGRVTMTRDTSTSTVYMELSSLRSEDTAVYYCARGSAYYYDFADYWGQGTLVTVSSG light: DIQLTQSPSSLSASVGDRVTITCSVSSSISSNNLHWYQQKPGKAPKPWIYGTSNLASGVPSRFSGSGSGTDYTFTISSLQPEDIATYYCQQWSSYPYMYTFGQGTKVEIKRTVAAPSVFIFPPSDEQLKSGTASVVCLLNNFYPREAKVQWKVDNALQSGNSQESVTEQDSKDSTYSLSSTLTLSKADYEKHKVYACEVTHQGLSSPVTKSFNRGEC
11.5 | 27.1 | 22.1 | 11.8 | 24.7 | ~40 | 63.7 | ~30 | ~30 | 43 | 22 | 32.8 | 29.3 | 14 | ~60 | 26.2 | 31.7 | scFv-IgAb_381 (FOLR1_1×CD16a4) (bispecific antibody, also called FOLR1×CD16A scFv-IgAb_381) chain 1: EVQLVESGGGVVQPGRSLRLSCSASGFTFSGYGLSWVRQAPGKGLEWVAMISSGGSYTYYADSVKGRFAISRDNAKNTLFLQMDSLRPEDTGVYFCARHGDDPAWFAYWGQGTPVTVSSASTKGPSVFPLAPSSKSTSGGTAALGCLVKDYFPEPVTVSWNSGALTSGVHTFPAVLQSSGLYSLSSVVTVPSSSLGTQTYICNVNHKPSNTKVDKKVEPKSCDKTHTCPPCPAPEFEGGPSVFLFPPKPKDTLMISRTPEVTCVVVAVSHEDPEVKFNWYVDGVEVHNAKTKPREEQYNSTYRVVSVLTVLHQDWLNGKEYKCKVSNKALPAPIEKTISKAKGQPREPQVYTLPPSREEMTKNQVSLTCLVKGFYPSDIAVEWESNGQPENNYKTTPPVLDSDGSFFLYSKLTVDKSRWQQGNVFSCSVMHEALHNHYTQKSLSLSPGGGGGSGGGGSGGGGSGGGGSGGGGSGGGGSSYELTQPLSVSVALGQTARITCGGHNIGSKNVHWYQQKPGQAPVLVIYQDNKRPSGIPERFSGSNSGNTATLTISRAQAGDEADYYCQVWDNYNVLFGCGTKLTVLGGSGGSGGSGGSGGSGGSGGSQVQLVQSGAEVKKPGASVKVSCKASGYTFTSYYMHWVRQAPGQCLEWMGAIEPTYGSTSYAQKFQGRVTMTRDTSTSTVYMELSSLRSEDTAVYYCARGSAYYYDFADYWGQGTLVTVS chain 2: DIQLTQSPSSLSASVGDRVTITCSVSSSISSNNLHWYQQKPGKAPKPWIYGTSNLASGVPSRFSGSGSGTDYTFTISSLQPEDIATYYCQQWSSYPYMYTFGQGTKVEIKRTVAAPSVFIFPPSDEQLKSGTASVVCLLNNFYPREAKVQWKVDNALQSGNSQESVTEQDSKDSTYSLSSTLTLSKADYEKHKVYACEVTHQGLSSPVTKSFNRGEC
